Residue numbers refer to the chain shown, from its start. In names and notes the source's numbering stands.
T1: FcγRIIb extracellular domain with C-terminal His tag (human, UniProt P31994 43-217)
T1 construct: extracellular domain; also called FcgRIIb; FcγRIIb extracellular region; not shown: His tag at the C terminus
T1 sequence (looked up): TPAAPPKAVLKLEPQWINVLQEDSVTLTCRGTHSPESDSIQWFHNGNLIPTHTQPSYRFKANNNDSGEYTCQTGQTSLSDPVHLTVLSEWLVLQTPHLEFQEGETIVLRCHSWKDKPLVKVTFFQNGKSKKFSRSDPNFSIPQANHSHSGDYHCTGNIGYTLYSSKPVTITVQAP

T2: FcγRIIa type R extracellular domain with C-terminal His tag (human, UniProt P12318 34-217)
T2 chain: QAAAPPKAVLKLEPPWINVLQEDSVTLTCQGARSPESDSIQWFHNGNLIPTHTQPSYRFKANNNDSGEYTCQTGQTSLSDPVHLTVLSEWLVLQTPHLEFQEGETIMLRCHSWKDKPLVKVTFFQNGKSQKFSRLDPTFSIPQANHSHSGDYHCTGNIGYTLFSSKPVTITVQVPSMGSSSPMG

T3: FcγRIIa type H extracellular domain with C-terminal His tag (human, UniProt P12318 34-217)
T3 construct: extracellular domain; also called FcgRIIaH; FcγRIIaH
T3 sequence (looked up): T2 chain with R134H

T4: FcγRIIa type R extracellular domain with C-terminal His tag (human, UniProt P12318 34-217)
T4 construct: extracellular domain; also called FcgRIIaR; FcγRIIaR
T4 sequence (looked up): T2 chain

T5: FcγRIIb extracellular domain with C-terminal His tag (human, UniProt P31994 43-217)
T5 construct: extracellular domain; also called FcgRIIb
T5 sequence (looked up): T1 sequence (looked up)

T6: FcγRIIa type R extracellular domain, C-terminal His tag (human, UniProt P12318 34-217)
T6 construct: extracellular domain; also called FcgRIIaR; FcγRIIaR; not shown: His tag at the C terminus
T6 sequence (looked up): T2 chain

T7: FcγRIIb extracellular domain, C-terminal His tag (human, UniProt P31994 43-217)
T7 construct: extracellular domain; also called FcgRIIb; CD32B; not shown: His tag at the C terminus
T7 sequence (looked up): T1 sequence (looked up)

B1: IL6R-PD042/IL6R-L (antibody, human IgG1, kappa)
heavy: QVQLQESGPGLVKPSETLSLTCAVSGHSISHDHAWSWVRQPPGEGLEWIGFISYSGITNYNPSLQGRVTISRDNSKNTLYLQMNSLRAEDTAVYYCARSLARTTAMDYWGEGTLVTVSSASTKGPSVFPLAPSSKSTSGGTAALGCLVKDYFPEPVTVSWNSGALTSGVHTFPAVLQSSGLYSLSSVVTVPSSSLGTQTYICNVNHKPSNTKVDKKVEPKSCDKTHTCPPCPAPEWLGGDSVFLFPPKPKDTLYISRTPEVTCVVVDVSHEDPEVKFNWYVDGVEVHNAKTKPREEQYNSTYRVVSVLTVLHQDWLNGKEYKCKVSNKALPAPIEKTISKAKGQPREPQVYTLPPSRDELTKNQVSLTCLVKGFYPSDIAVEWESNGQPENNYKTTPPVLDSDGSFFLYSKLTVDKSRWQQGNVFSCSVMHEALHYHYTQKSLSLSP
light: not shown
notes: IL6R-F11 with P238D/L234W; copies: 2 + 2
B2: IL6R-PD080/IL6R-L (antibody, human IgG1, kappa)
heavy: B1 heavy with W236L, G239D
light: not shown
notes: IL6R-F11 with P238D/G237D; copies: 2 + 2
B3: IL6R-PD079/IL6R-L (antibody, human IgG1, kappa)
heavy: B1 heavy with W236L, G239A
light: not shown
notes: IL6R-F11 with P238D/G237A; copies: 2 + 2
B4: IL6R-BP148/IL6R-L (antibody, human IgG1, kappa)
heavy: B1 heavy with E235D, W236Y, G239D, Y254M, K328A, A332K, Y436N, K441E
light: not shown
notes: E233D/L234Y/G237D/P238D/K326A/A330K (EU) in IL6R-B3; copies: 2 + 2
B5: IL6R-BP184/IL6R-L (antibody, human IgG1, kappa)
heavy: B1 heavy with E235D, W236L, Y254M, P273G, A332K, Y436N, K441E
light: not shown
notes: E233D/P238D/P271G/A330K (EU) in IL6R-B3; copies: 2 + 2
B6: IL6R-BP185/IL6R-L (antibody, human IgG1, kappa)
heavy: B1 heavy with E235D, W236Y, G239D, Y254M, P273G, K328A, A332K, Y436N, K441E
light: not shown
notes: E233D/L234Y/G237D/P238D/P271G/K326A/A330K (EU) in IL6R-B3; copies: 2 + 2
B7: IL6R-BP183/IL6R-L (antibody, human IgG1, kappa)
heavy: B1 heavy with E235D, W236Y, Y254M, P273G, K328A, A332K, Y436N, K441E
light: not shown
notes: E233D/L234Y/P238D/P271G/K326A/A330K (EU) in IL6R-B3; copies: 2 + 2
B8: IL6R-BP187/IL6R-L (antibody, human IgG1, kappa)
heavy: B1 heavy with W236Y, Y254M, P273G, K328A, A332K, Y436N, K441E
light: not shown
notes: L234Y/P238D/P271G/K326A/A330K (EU) in IL6R-B3; copies: 2 + 2
B9: IL6R-2B253/IL6R-L (antibody, human IgG1, kappa)
heavy: B1 heavy with E235D, W236L, Y254M, V325M, Y436N, K441E
light: not shown
notes: E233D/P238D/V323M (EU) in IL6R-B3; copies: 2 + 2
B10: IL6R-BP085/IL6R-L (antibody, human IgG1, kappa)
heavy: B1 heavy with W236L, G239D, Y254M, A332K, Y436N, K441E
light: not shown
notes: G237D/P238D/A330K (EU) in IL6R-B3; copies: 2 + 2
B11: IL6R-BP190/IL6R-L (antibody, human IgG1, kappa)
heavy: B1 heavy with W236L, G239D, Y254M, H270D, P273G, A332K, Y436N, K441E
light: not shown
notes: G237D/P238D/H268D/P271G/A330K (EU) in IL6R-B3; copies: 2 + 2
B12: IL6R-BP180/IL6R-L (antibody, human IgG1, kappa)
heavy: B1 heavy with W236L, G239D, Y254M, P273G, A332K, Y436N, K441E
light: not shown
notes: G237D/P238D/P271G/A330K (EU) in IL6R-B3; copies: 2 + 2
B13: IL6R-BP102/IL6R-L (antibody, human IgG1, kappa)
heavy: B1 heavy with W236L, Y254M, S269Q, Y436N, K441E
light: not shown
notes: IgG1; P238D/S267Q (EU numbering) introduced into IL6R-B3
B14: IL6R-BP120/IL6R-L (antibody, human IgG1, kappa)
heavy: B1 heavy with W236L, Y254M, K328E, Y436N, K441E
light: not shown
notes: IgG1; P238D/K326E (EU numbering) introduced into IL6R-B3
B15: IL6R-BP117/IL6R-L (antibody, human IgG1, kappa)
heavy: B1 heavy with W236L, Y254M, K328D, Y436N, K441E
light: not shown
notes: IgG1; P238D/K326D (EU numbering) introduced into IL6R-B3
B16: IL6R-BP136/IL6R-L (antibody, human IgG1, kappa)
heavy: B1 heavy with W236L, Y254M, K328A, Y436N, K441E
light: not shown
notes: IgG1; P238D/K326A (EU numbering) introduced into IL6R-B3
B17: G237A (antibody, human IgG1, kappa)
heavy chain: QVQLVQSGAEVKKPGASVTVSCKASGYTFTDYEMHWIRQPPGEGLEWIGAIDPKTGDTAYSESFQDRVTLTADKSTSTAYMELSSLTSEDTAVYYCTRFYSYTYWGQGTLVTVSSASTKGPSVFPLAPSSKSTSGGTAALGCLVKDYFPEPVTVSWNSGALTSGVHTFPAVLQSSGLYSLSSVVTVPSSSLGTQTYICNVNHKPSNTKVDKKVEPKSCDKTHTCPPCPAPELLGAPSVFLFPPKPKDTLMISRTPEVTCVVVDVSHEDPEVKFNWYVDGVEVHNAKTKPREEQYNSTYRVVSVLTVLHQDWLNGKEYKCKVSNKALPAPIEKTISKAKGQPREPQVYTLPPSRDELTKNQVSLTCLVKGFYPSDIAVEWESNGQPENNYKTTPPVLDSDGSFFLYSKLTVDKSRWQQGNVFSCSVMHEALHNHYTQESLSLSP
light chain: DIVMTQSPLSLPVTPGEPASISCQASESLVHSNRNTYLHWYLQKPGQSPQLLIYKVSNRFSGVPDRFSGSGSGTDFTLKISRVEAEDVGVYYCSQNTHVPPTFGQGTKVEIERTVAAPSVFIFPPSDEQLKSGTASVVCLLNNFYPREAKVQWKVDNALQSGNSQESVTEQDSKDSTYSLSSTLTLSKADYEKHKVYACEVTHQGLSSPVTKSFNRGEC
notes: Named on the sheet only by its alteration; also called B3 variant of GpH7-B3/GpL16-k0 with G237A (no P238D)
B18: L234W (antibody, human IgG1, kappa)
heavy chain: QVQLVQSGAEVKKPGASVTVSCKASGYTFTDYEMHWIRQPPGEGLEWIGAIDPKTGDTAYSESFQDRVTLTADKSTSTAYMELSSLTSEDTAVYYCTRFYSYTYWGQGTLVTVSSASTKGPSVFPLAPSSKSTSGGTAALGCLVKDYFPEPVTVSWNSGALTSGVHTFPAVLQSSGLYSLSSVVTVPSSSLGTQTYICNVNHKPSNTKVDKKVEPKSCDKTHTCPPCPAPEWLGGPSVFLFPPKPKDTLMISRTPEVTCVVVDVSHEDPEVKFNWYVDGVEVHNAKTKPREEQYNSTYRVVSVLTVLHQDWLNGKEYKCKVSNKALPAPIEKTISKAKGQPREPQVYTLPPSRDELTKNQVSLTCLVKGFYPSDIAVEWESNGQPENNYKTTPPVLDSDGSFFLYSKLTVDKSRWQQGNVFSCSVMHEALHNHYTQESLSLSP
light chain: B17 light chain
notes: Named on the sheet only by its alteration; also called B3 variant of GpH7-B3/GpL16-k0 with L234W (no P238D)
B19: G237M (antibody, human IgG1, kappa)
heavy chain: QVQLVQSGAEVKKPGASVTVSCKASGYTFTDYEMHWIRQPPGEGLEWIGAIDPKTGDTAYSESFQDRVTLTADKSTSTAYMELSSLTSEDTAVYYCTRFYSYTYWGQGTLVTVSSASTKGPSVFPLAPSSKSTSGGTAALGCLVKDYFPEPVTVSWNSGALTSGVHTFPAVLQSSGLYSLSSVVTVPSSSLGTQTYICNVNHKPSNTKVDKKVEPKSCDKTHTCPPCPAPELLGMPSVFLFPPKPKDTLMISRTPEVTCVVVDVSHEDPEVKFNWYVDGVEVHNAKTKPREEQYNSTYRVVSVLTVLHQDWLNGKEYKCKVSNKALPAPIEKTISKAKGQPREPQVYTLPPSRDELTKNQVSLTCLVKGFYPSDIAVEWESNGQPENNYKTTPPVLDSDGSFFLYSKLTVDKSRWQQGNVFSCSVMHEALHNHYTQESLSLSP
light chain: B17 light chain
notes: Named on the sheet only by its alteration; also called B3 variant of GpH7-B3/GpL16-k0 with G237M (no P238D)
B20: G237L (antibody, human IgG1, kappa)
heavy chain: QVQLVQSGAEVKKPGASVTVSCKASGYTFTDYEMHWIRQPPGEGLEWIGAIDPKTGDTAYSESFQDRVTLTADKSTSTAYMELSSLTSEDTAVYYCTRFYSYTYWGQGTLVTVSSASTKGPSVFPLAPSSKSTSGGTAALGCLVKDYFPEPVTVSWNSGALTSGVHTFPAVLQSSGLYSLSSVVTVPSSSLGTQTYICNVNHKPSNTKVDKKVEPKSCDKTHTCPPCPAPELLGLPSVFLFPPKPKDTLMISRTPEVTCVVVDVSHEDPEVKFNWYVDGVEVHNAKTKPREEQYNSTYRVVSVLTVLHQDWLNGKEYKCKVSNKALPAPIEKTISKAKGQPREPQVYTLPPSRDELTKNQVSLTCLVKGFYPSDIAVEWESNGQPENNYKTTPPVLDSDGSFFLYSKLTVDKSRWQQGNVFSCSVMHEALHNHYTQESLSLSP
light chain: B17 light chain
notes: Named on the sheet only by its alteration; also called B3 variant of GpH7-B3/GpL16-k0 with G237L (no P238D)
B21: G237D (antibody, human IgG1, kappa)
heavy chain: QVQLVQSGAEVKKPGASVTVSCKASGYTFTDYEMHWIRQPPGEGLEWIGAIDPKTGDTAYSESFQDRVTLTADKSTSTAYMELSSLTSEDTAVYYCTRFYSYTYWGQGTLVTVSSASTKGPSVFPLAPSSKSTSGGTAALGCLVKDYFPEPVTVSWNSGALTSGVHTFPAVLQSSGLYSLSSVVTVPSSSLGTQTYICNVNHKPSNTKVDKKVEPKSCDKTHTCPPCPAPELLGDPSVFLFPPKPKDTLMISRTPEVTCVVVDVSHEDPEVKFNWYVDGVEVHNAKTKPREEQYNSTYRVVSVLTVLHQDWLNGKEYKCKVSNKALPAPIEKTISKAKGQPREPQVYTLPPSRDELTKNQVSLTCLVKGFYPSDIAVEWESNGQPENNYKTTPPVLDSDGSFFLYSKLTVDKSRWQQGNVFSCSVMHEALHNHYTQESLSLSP
light chain: B17 light chain
notes: Named on the sheet only by its alteration; also called B3 variant of GpH7-B3/GpL16-k0 with G237D (no P238D)
B22: G237Y (antibody, human IgG1, kappa)
heavy chain: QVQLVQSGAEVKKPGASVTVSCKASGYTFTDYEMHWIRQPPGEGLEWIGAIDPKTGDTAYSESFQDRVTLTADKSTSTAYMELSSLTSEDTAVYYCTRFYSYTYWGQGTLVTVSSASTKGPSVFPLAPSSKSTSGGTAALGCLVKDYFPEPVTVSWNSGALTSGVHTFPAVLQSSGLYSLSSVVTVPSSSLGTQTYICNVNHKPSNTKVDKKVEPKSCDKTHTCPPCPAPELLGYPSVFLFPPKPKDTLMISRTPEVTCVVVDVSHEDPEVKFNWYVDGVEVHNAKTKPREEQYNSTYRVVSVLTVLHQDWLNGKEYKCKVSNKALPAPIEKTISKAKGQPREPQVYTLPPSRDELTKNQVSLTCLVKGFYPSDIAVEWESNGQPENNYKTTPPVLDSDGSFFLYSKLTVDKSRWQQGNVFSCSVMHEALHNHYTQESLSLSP
light chain: B17 light chain
notes: Named on the sheet only by its alteration; also called B3 variant of GpH7-B3/GpL16-k0 with G237Y (no P238D)
B23: G237E (antibody, human IgG1, kappa)
heavy chain: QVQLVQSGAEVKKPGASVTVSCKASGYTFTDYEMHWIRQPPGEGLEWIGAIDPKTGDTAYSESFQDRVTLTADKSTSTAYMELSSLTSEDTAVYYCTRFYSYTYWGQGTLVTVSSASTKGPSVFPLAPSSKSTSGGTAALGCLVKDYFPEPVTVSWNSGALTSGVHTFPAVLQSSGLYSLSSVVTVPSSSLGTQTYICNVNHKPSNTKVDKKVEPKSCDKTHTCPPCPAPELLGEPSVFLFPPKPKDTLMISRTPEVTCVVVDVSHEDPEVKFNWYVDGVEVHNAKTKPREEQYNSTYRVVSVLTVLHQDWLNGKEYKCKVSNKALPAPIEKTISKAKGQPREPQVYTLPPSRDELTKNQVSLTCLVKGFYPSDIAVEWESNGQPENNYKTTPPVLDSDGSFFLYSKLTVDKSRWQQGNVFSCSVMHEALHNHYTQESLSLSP
light chain: B17 light chain
notes: Named on the sheet only by its alteration; also called B3 variant of GpH7-B3/GpL16-k0 with G237E (no P238D)

Each binder was assayed against T1, FcγRIIb extracellular domain with … (assay: SPR (Biacore), antibody captured, FcγR analyte).
From the text: (§1) Furthermore, KD(IIaR)/KD(IIb) and KD(IIaH)/KD(IIb) in the table respectively show the value obtained by dividing the KD value of each variant for FcγRIIaR by the KD value of each variant for FcγRIIb, and the value obtained by dividing the KD value of each variant for FcγRIIaH by the KD value of each variant for FcγRIIb. KD(IIb) of the parent polypeptide/KD(IIb) of the altered polypeptide refers to a value obtained by dividing the KD value of the parent polypeptide for FcγRIIb by the KD value of each variant for FcγRIIb.
(§2) Kinetic analyses for calculating the KD values of each altered antibody for FcγR were performed according to the following method. First, antibodies of interest were captured onto the above-mentioned sensor chips, and an Fcγ receptor diluted with the running buffer was allowed to interact. The Biacore Evaluation Software was used to globally fit the measured results to the obtained sensorgram using the 1:1 Langmuir binding model, and the association rate constant ka (L/mol/s) and the dissociation rate constant kd (1/s) were calculated; and from those values the dissociation constants KD (mol/L) were calculated.

Binder	Kd [nM]
B1	2000
B2	2000
B3	3000

Target: T2, FcγRIIa type R extracellular domain …
Test: SPR (Biacore), antibody captured, FcγR analyte
From the text: as §1, §2

Binder	Kd [µM]
B1	16
B2	21
B3	32

These binders were tested against T8, FcγRIIIa type V extracellular domain with C-terminal His tag (human, UniProt P08637 17-208) (assay: SPR (Biacore), antibody captured, FcγR analyte).
T8 construct: extracellular domain; also called FcγRIIIaV; FcgRIIIaV; not shown: His tag at the C terminus
From the text: as §1, §2
T8 sequence (P08637 17-208 F176V): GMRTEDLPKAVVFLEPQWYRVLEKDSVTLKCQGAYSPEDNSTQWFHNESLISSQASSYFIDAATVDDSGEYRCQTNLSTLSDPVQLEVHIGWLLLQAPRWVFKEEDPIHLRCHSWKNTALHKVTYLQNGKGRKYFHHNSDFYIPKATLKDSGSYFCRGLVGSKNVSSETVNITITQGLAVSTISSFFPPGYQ

Binder	Kd [µM]
B1	37
B2	43
B3	37

The binders below were run against T3, FcγRIIa type H extracellular domain … (assay: SPR (Biacore)).

Binder	Kd [µM]
B4	7
B5	30

Each binder was assayed against T4, FcγRIIa type R extracellular domain … (assay: SPR (Biacore)).

Binder	Kd [nM]
B6	880
B7	2600
B8	2800
B9	5000
B10	4200
B5	2300

Each binder was assayed against T5, FcγRIIb extracellular domain with … (assay: SPR (Biacore)).

Binder	Kd [nM]
B6	69

What follows are binders tested against T9, FcγRIIIa type V extracellular domain with C-terminal His tag (human, UniProt P08637 17-208) (assay: SPR (Biacore)).
T9 construct: extracellular domain; also called FcgRIIIaV; FcγRIIIaV
T9 sequence (P08637 17-208 F176V): as above

Binder	Kd [µM]
B6	36
B7	56
B8	56
B9	50
B11	45
B10	68
B4	30
B12	70
B5	66

What follows are binders tested against T10, FcγRIa extracellular domain with C-terminal His tag (human, UniProt P12314 16-292) (assay: SPR (Biacore)).
T10 construct: also called FcgRIa
T10 sequence (P12314 16-292): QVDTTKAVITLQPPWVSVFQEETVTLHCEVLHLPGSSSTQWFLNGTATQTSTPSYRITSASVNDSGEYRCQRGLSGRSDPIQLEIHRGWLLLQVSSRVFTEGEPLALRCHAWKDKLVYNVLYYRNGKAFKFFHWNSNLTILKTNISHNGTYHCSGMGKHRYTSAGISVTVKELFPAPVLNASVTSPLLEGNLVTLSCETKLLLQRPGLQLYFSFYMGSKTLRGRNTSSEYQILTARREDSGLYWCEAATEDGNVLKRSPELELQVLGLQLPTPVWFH

Binder	Kd [nM]
B8	25
B12	98

These binders were tested against T6, FcγRIIa type R extracellular domain, … (assay: SPR (Biacore), antibody captured, FcγR as analyte).
From the text: (§3) Furthermore, KD(IIaR)/KD(IIb) and KD(IIaH)/KD(IIb) in the table respectively represent the value obtained by dividing the KD value of each variant for FcγRIIaR by the KD value of each variant for FcγRIIb, and the value obtained by dividing the KD value of each variant for FcγRIIaH by the KD value of each variant for FcγRIIb. KD(IIb) of the parent polypeptide/KD(IIb) of the altered polypeptide refers to the value obtained by dividing the KD value of the parent polypeptide for FcγRIIb by the KD value of each variant for FcγRIIb.
as §2

Binder	Kd [µM]
B13	8.4
B14	9.6
B15	9.2

These binders were tested against T7, FcγRIIb extracellular domain, … (assay: SPR (Biacore), antibody captured, FcγR as analyte).
From the text: as §3, §2

Binder	Kd [nM]
B13	900
B14	1000
B15	800
B16	800

The binders below were run against T1, FcγRIIb extracellular domain with … (assay: SPR (Biacore): antibody captured on the chip, FcγRIIb as analyte; amount bound per amount captured, relative to GpH7-B3/GpL16-k0 = 100).

Binder	binding result
B17	binds
B18	binds
B19	binds
B20	binds
B21	binds
B22	binds
B23	binds
